Test results: publication PMC6547806

Biological target: Angiomotin (Amot80) coiled-coil homology (ACCH) domain, wild type
Test: SEC

Angiomotin (Amot80) coiled-coil homology (ACCH) domain, wild type (domain or fragment)
stoichiometry N: 4
